US20070092518A1 (published 2007)

Target: T1, human tumor necrosis factor-α (rHuTNF-alpha, Biosource) (human, UniProt P01375 77-233)
T1 construct: Bought recombinant protein coated on ELISA plates; The TNFα of the Biacore assay is not described further; also called TNFα; human TNFα
Test: solid-phase ELISA, Fab lysate on coated rHuTNF-alpha
Experimental: The Fab libraries were cloned into pTrcHis2A (Cat. No. V365-20, Invitrogen, Carlsbad, Calif.). Proteins were expressed in E. coli and solid-phase ELISA was used to assess Fab binding to human TNFα. Briefly, 96-well plates were coated overnight at 4° C. with 1 μg/ml of rHuTNF-alpha (Biosource, Camarillo, Calif.) in Carbonate-bicarbonate buffer, pH9.4. After washing in PBS with 0.05% (w/v) Tween-20, the wells were blocked with 1% (w/v) BSA in PBS for 1 hour at room temperature. After washing, plates were incubated with transformed E. coli cell lysate diluted in the assay buffer (1% BSA and 0.05% Tween-20 in 10 mM PBS) for 2 hours at room temperature. Various concentrations of infliximab (0.5, 1 and 2 ng/ml) were used as positive anti-Human Kappa Light Chain Biotin/anti-penta-His Biotin control. Plates were washed and incubated with ImmunoPure Goat Anti-Human Kappa Chain, Biotin Conjugated (Cat. No. 31780, Pierce Biotechnology, Rockford, Ill.) and Penta-His Biotin Conjugate (Cat. No. 34440, QIAGEN, Valencia, Calif.) diluted 1:2000 in the assay buffer for 1 hour at room temperature. Following another washing step, plates were probed for 1 hour at room temperature with 100 μL/well of Streptavidin POD (Cat. No. 1089153, Roche Applied Science, Indianapolis, Ind.) diluted 1:4000 in the assay buffer. Plates were further washed and then incubated with 3,3′,5,5′-tetramentylbenzidine (TMB, Cat. No. 34028, Pierce Biotechnology) for 30 minutes. Substrate development was stopped by addition of 100 μL/well TMB Stop Solution (Cat. No. 50-85-05, KPL, Gaithersburg, Md.) and the absorbance was measured at 450 nm via an automated plate spectrophotometer.

T1 sequence (P01375 77-233 limits assumed): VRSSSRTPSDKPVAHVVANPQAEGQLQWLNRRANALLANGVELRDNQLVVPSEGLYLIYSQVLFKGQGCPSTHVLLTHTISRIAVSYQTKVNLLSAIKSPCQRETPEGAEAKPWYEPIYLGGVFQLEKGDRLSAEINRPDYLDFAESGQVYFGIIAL

B1: SEQ ID NO 28 (Fab, V domains shown)
VH: EVQLVESGGGLVQPGGSLRLSCAASGSTFSNHWMNWVRQAPGKGLEWIGEIRSKSSYGATSYAESVKGRFIISRDGNGNSLTLEMNSLKTEDTAEYYCAQNYYGSTPDYWGQGTLVTVS
VL: EIVLTQSPDFQSVTPKEKVTITCRASQFVGSSIHWYQQKPDQSPKLLIKYASESMSGVPSRFSGSGSGTDFTFTISSLEAEDAATYYCQQSHSWPFTFGPGTKVDIK
notes: Fab, E. coli lysate
B1: binds.

B2: SEQ ID NO 40 (Fab, V domains shown)
VH: EVQLVESGGGLVQPGGSLRLSCAASGSTFSNHYMNWVRQAPGKGLEWIGEIRSKSINSATSYAESVKGRFIISRDGNGTSLYLEMNSLKTEDTAEYYCARNYYGSTYDYWGQGTLVTVS
VL: EIVLTQSPDFQSVTPKEKVTITCRASQFVGSSIHWYQQKPDQSPKLLIKYASESMSGVPSRFSGSGSGTDFTFTISSLEAEDAATYYCQQSHSWPFTFGPGTKVDIK
notes: Fab, E. coli lysate
B2: binds.

B3: SEQ ID NO 31 (Fab, V domains shown)
VH: EVQLTESGGGLVQPGGSLRLSCAASQFIFSNHYMNWVRQAPGKGLEWIGEIRSKSSYGATHYAESVKGRFIISRDGNKTDLTLEMNSLKTEDTAEYYCAQNYYGSTYDYWGQGTLVTVS
VL: EIVLTQSPDFQSVTPKEKVTITCRASQFVGSSIHWYQQKPDQSPKLLIKYASESMSGVPSRFSGSGSGTDFTFTISSLEAEDAATYYCQQSHSWPFTFGPGTKVDIK
notes: Fab, E. coli lysate
B3: binds.

B4: SEQ ID NO 43 (Fab, V domains shown)
VH: EVQLVESGGGLVQPGGSLRLSCRASGSIFSNHWMNWVRQAPGKGLEWIGEIRSKSINGATSYAESVKGRFIISRDDNGNSLTLEMNSLKTEDTAEYYCAQNYYGSTPDYWGQGTLVTVS
VL: EIVLTQSPDFQSVTPKEKVTITCRASQFVGSSIHWYQQKPDQSPKLLIKYASESMSGVPSRFSGSGSGTDFTFTISSLEAEDAATYYCQQSHSWPFTFGPGTKVDIK
notes: Fab, E. coli lysate
B4: binds.

B5: SEQ ID NO 44 (Fab, V domains shown)
VH: EVQLTESGGGLVQPGGSLRLSCAASGFTFSNHWMNWVRQAPGKGLEWIGEIRSKSSYSATHYAESVKGRFIISRDDNKTDLTLEMNSLKTEDTAEYYCARNYYGSTYDYWGQGTLVTVS
VL: EIVLTQSPDFQSVTPKEKVTITCRASQFVGSSIHWYQQKPDQSPKLLIKYASESMSGVPSRFSGSGSGTDFTFTISSLEAEDAATYYCQQSHSWPFTFGPGTKVDIK
notes: Fab, E. coli lysate
B5: binds.

B6: SEQ ID NO 36 (Fab, V domains shown)
VH: EVQLVESGGGLVQPGGSLRLSCAASQFTFSNHYMNWVRQAPGKGLEWIGEIRSKSIYGATSYAESVKGRFIISRDDNGTSLYLEMNSLKTEDTAEYYCARNYYGSTYDYWGQGTLVTVS
VL: EIVLTQSPDFQSVTPKEKVTITCRASQFVGSSIHWYQQKPDQSPKLLIKYASESMSGVPSRFSGSGSGTDFTFTISSLEAEDAATYYCQQSHSWPFTFGPGTKVDIK
notes: Fab, E. coli lysate
B6: binds.

B7: SEQ ID NO 33 (Fab, V domains shown)
VH: EVQLVESGGGLVQPGGSLRLSCRASGSIFSNHYMNWVRQAPGKGLEWIGEIRSKSSNGATHYAESVKGRFIISRDDNKNSLYLEMNSLKTEDTAEYYCARNYYGSTYDYWGQGTLVTVS
VL: EIVLTQSPDFQSVTPKEKVTITCRASQFVGSSIHWYQQKPDQSPKLLIKYASESMSGVPSRFSGSGSGTDFTFTISSLEAEDAATYYCQQSHSWPFTFGPGTKVDIK
notes: Fab, E. coli lysate
B7: binds.

B8: SEQ ID NO 42 (Fab, V domains shown)
VH: EVQLVESGGGLVQPGGSLRLSCAASGFTFSNHYMNWVRQAPGKGLEWIGEIRSKSSYSATSYAESVKGRFIISRDDNKNSLTLEMNSLKTEDTAEYYCARNYYGSTPDYWGQGTLVTVS
VL: EIVLTQSPDFQSVTPKEKVTITCRASQFVGSSIHWYQQKPDQSPKLLIKYASESMSGVPSRFSGSGSGTDFTFTISSLEAEDAATYYCQQSHSWPFTFGPGTKVDIK
notes: Fab, E. coli lysate
B8: binds.
